Measured values taken from patent publication US20080293632, “Use of natriuretic peptides for the treatment of stature disorders related to shox gene” (Gudrun RAPPOLD-HOERBRAND, published 2008).

Assays:
SHOX full length = SHOX full length (Homo sapiens, UniProt O15266 O15266:1-292); assay: ChIP with SHOX antibody, U2OS cells, quantitative PCR; settings: tags: tetracycline-inducible in U2OS cells
Method: Hereby U2OS cells, which express the SHOX gene for 48 hours, were treated with formaldehyde to allow fixation of the DNA binding proteins to the DNA. The cell chromatin was isolated and the fixed DNA precipitated together with SHOX through addition of a SHOX specific antibody. For controls, […] or water was used instead of the antibody. The precipitated DNA was analyzed by quantitative RT-PCR for an accumulation of SHOX binding sites in the putative regulatory region of the BNP gene.

[1] = target: T1, SHOX-GST (GST-SHOX-STM, SHOX aa 1-194) (Homo sapiens, UniProt O15266 O15266:1-194); assay: EMSA; five-nucleotide replacement, entire loss of binding; settings: tags: N-terminal GST (pGEX, E. coli); chain copies: monomer at low, homodimer at high concentration (stated); label: 32P; 5' overhangs filled in
T1 sequence (O15266 1-194, one chain of several): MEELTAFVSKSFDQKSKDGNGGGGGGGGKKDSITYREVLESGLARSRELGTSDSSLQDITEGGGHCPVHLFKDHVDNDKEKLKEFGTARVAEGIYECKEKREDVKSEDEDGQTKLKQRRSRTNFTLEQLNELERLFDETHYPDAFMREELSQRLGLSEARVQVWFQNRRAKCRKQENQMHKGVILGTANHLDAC
From the text: (§1) To create double stranded DNA for mobility shift assays two complementary oligonucleotides were annealed, generating 5′ overhangs on each side to permit radiolabelling using the Taq polymerase. The following oligonucleotides were used in the shift experiments (only the forward strand of the probes are given, putative binding site in bold, mutagenized nucleotides underlined): BNP-1220 Wt: […] [SEQ ID NO: 10]; BNP-1220a: […] [SEQ ID NO: 11]; BNP-1220b: […] [SEQ ID NO: 12]; BNP-1220c: […] [SEQ ID NO: 13]; BNP-600Wt: […] [SEQ ID NO: 14]; BNP-600a: […] CAT [SEQ ID NO: 15]; BNP-600b: […] [SEQ ID NO: 16].
Gel Shift reactions contained 15 mM Hepes pH 7.5, 150 mM NaCl, 1 mM EDTA, 0.5 mM DTT, 0.05% NP-40, 7.5% glycerol, 0.25 mg/ml bovine serum albumin, 1.5 μg poly(dI-dC) and the appropriate ³²P-labelled probe. After addition of protein extract the samples were incubated for 10 min at room temperature. Separation was performed on a 5% nondenaturing polyacrylamide gel with 0.25×TBE at 12 V/cm at room temperature for 50 min. Gels were then dried and exposed overnight at −80° C. […] In competition experiments, varying amounts of unlabelled competitor DNA were added to the samples preceding addition of protein extracts. In supershift experiments, 3 μg of anti-human SHOX-3-specific antibody were applied to the samples and preincubated for 15 min on ice prior separation for 2 h at 12 V/cm and 8° C.

[2] = target: T1, SHOX-GST (GST-SHOX-STM, SHOX aa 1-194); assay: as above; settings: tags: N-terminal GST (pGEX, E. coli); chain copies: monomer at low, homodimer at high concentration (stated); label: 32P; 5' overhangs filled in; remark: listed apart in the source
Method: To test the sequence specificity of the SHOX DNA binding, SHOX-GST was incubated with oligonucleotides containing artificially introduced mutations in the putative SHOX binding site. Nucleotides differing from the wild-type sequence (Wt) are highlighted in green (BNP-1220a, BNP-1220b, BNP-1220c).
as §1
(§2) Gel Shift reactions contained 15 mM Hepes pH 7.5, 150 mM NaCl, 1 mM EDTA, 0.5 mM DTT, 0.05% NP-40, 7.5% glycerol, 0.25 mg/ml bovine serum albumin, 1.5 μg poly(dI-dC) and the appropriate ³²P-labelled probe. After addition of protein extract the samples were incubated for 10 min at room temperature. Separation was performed on a 5% nondenaturing polyacrylamide gel with 0.25×TBE at 12 V/cm at room temperature for 50 min. Gels were then dried and exposed overnight at −80° C. […]

[3] = target: T1, SHOX-GST (GST-SHOX-STM, SHOX aa 1-194); assay: EMSA; settings: tags: N-terminal GST (pGEX, E. coli); chain copies: monomer at low, homodimer at high concentration (stated); label: 32P; 5' overhangs filled in
Method: (§3) FIG. 3A: 10 fmol of ³²P-radiolabelled double stranded oligonucleotide containing the putative distal binding site of SHOX was incubated with 0, 0.05, 0.5 and 3 μl purified SHOX-GST (250 nM). Monomeric binding of SHOX-GST could be observed with volumes of 0.05 and 0.5 μl, an increase in SHOX-GST concentration led to the formation of homeodimers.
as §1
as §2, with “min.” for “min. Gels were then dried and exposed overnight at −80° C.”

[4] = target: T1, SHOX-GST (GST-SHOX-STM, SHOX aa 1-194); assay: EMSA; settings: tags: N-terminal GST (pGEX, E. coli); chain copies: monomer at low, homodimer at high concentration (stated); label: 32P; 5' overhangs filled in; remark: listed apart in the source
Method: as §3, with “2A:” for “3A:”, “double-stranded” for “double stranded”, “proximal” for “distal”
as §1
as §2, with “min.” for “min. Gels were then dried and exposed overnight at −80° C.”

Sequence of SHOX full length (O15266 whole entry, one chain of several): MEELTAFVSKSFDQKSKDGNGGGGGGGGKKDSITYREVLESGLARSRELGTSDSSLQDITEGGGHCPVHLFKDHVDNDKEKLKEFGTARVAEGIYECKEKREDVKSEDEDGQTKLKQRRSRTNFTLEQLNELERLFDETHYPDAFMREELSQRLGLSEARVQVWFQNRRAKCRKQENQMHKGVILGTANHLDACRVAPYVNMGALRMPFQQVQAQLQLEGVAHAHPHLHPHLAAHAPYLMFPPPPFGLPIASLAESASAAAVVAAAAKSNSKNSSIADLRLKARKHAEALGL

B1: BNP-1220 chromatin region (dsDNA)
DNA 1: TAATGATAATTA
DNA 2: TAATTATCATTA
B1 gave a binding signal (SHOX full length) of 301 fold enrichment.

B2: BNP-600b (dsDNA)
DNA 1: GGGTTCCTGGTCATACCCAGGCTTTTGGGGAAGGGCCACTGGGGAATCAGCAT
DNA 2: ATGCTGATTCCCCAGTGGCCCTTCCCCAAAAGCCTGGGTATGACCAGGAACCC
B2: no binding [1].

B3: BNP-1220c (dsDNA)
DNA 1: GGGTCACCAGGCCACCTGCTCCCGATACCTAGATCATGGGTGGTCAGATG
DNA 2: CATCTGACCACCCATGATCTAGGTATCGGGAGCAGGTGGCCTGGTGACCC
B3: no binding [2].

B4: BNP-1220 Wt (dsDNA)
DNA 1: TAATCACCAGGCCACCTGCTAATGATAATTAGATCATGGGTGGTCAGATG
DNA 2: CATCTGACCACCCATGATCTAATTATCATTAGCAGGTGGCCTGGTGATTA
B4: binds [3].

B5: BNP-600 Wt (dsDNA)
DNA 1: TTCCTGGTCATACCCAGGCTTTTAATGAATTGCCACTGGGGAATCAGCAT
DNA 2: ATGCTGATTCCCCAGTGGCAATTCATTAAAAGCCTGGGTATGACCAGGAA
B5: binds [4].

B6: BNP-600 chromatin region (dsDNA)
DNA 1: TAATGAATTG
DNA 2: CAATTCATTA
B6 showed a binding signal (SHOX full length) of 428 fold enrichment.
